Positions of bridges follow the written chain, without caps; N, C: chain ends. Non-standard residues stand in square brackets, D forms with d.
What was measured:
[1] = target: T1, human MUC1 in human carcinoma cells (human, UniProt P15941 1097-1255); test: cell-based or functional assay
T1 sequence: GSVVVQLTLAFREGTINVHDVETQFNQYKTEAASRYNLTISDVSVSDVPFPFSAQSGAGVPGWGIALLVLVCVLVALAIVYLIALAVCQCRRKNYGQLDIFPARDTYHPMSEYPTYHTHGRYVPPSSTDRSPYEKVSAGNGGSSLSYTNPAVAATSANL

[2] = target: dopamine D1 receptor (Homo sapiens (Human)) (UniProt P21728); test: receptor binding screen, inhibition of radioligand binding
[3] = target: human MUC1 in human carcinoma cells (human) (UniProt P15941); test: cell-based or functional assay

Sequence of dopamine D1 receptor (Homo sapiens (Human)) (P21728 whole entry, form in doubt): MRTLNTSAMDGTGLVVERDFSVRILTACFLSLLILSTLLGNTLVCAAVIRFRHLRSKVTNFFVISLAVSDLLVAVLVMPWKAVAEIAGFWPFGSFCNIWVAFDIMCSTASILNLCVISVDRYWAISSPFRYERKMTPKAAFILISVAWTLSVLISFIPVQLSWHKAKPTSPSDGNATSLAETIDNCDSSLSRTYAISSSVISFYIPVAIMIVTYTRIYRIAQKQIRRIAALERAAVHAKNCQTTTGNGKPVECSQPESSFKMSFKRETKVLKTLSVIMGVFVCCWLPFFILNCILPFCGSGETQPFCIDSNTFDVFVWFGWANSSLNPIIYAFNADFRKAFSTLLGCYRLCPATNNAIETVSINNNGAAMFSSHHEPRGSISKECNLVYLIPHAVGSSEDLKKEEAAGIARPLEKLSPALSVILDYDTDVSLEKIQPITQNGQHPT

GO-203 (peptide)
% inhibition of proliferation, H1975 lung cancer cells, 5 µM peptide daily, viable cells by trypan blue [1]: 75.8%
% inhibition of proliferation, ZR-75-1 breast cancer cells, 5 µM peptide daily, viable cells by trypan blue [1]: 44%

B1: GO-203-2c (peptide)
peptide: Ac-[dR][dR][dR][dR][dR][dR][dR][dR][dR][dC][dQ][dC][dR][dR][dK][dN]-NH2
modifications: disulfide 10-12
SMILES: CC(=O)N[C@H](CCCNC(=N)N)C(=O)N[C@H](CCCNC(=N)N)C(=O)N[C@H](CCCNC(=N)N)C(=O)N[C@H](CCCNC(=N)N)C(=O)N[C@H](CCCNC(=N)N)C(=O)N[C@H](CCCNC(=N)N)C(=O)N[C@H](CCCNC(=N)N)C(=O)N[C@H](CCCNC(=N)N)C(=O)N[C@H](CCCNC(=N)N)C(=O)N[C@@H]1CSSC[C@H](C(=O)N[C@H](CCCNC(=N)N)C(=O)N[C@H](CCCNC(=N)N)C(=O)N[C@H](CCCCN)C(=O)N[C@H](CC(N)=O)C(N)=O)NC(=O)[C@@H](CCC(N)=O)NC1=O
IC50 of inhibition of proliferation of a variety of human carcinoma cell lines in vitro [1]: 2 to 5 µM
IC50 [2]: 10.5 µM

Ac-[dR][dR][dR][dR][dR][dR][dR][dR][dR][dC][dQ][dC][dR][dR][dK][dN]-NH2 (cysteine pairing not given here) [GO-203-2]
% Inhibition of cell viability, A549 NSCLC, 5 µM [3]: 75.4%
% Inhibition of cell viability, H1975 NSCLC, 5 µM [3]: 52.9%
% Inhibition of cell viability, MCF-7 breast carcinoma, 5 µM [3]: 91.4%
% Inhibition of cell viability, ZR-75-1 breast carcinoma, 5 µM [3]: 50.7%
% inhibition of proliferation, H1975 lung cancer cells, 5 µM peptide daily, viable cells by trypan blue [3]: 63.6%
% inhibition of proliferation, ZR-75-1 breast cancer cells, 5 µM peptide daily, viable cells by trypan blue [3]: 65.5%
IC50 of inhibition of proliferation of a variety of human carcinoma cell lines in vitro [3]: 2 to 5 µM
